Test results published in article PMC12160003 (Cell, 2025).
Where two headings read alike, the source gives them in different places.

Assays:
[1] = target: T1, Flag/His-tagged recombinant human DNMT1 protein (human, UniProt P26358 1-1616); assay: co-IP
[2] = target: T1, Flag/His-tagged recombinant human DNMT1 …; assay: co-IP; remark: listed apart in the source

T1 sequence (P26358 whole entry): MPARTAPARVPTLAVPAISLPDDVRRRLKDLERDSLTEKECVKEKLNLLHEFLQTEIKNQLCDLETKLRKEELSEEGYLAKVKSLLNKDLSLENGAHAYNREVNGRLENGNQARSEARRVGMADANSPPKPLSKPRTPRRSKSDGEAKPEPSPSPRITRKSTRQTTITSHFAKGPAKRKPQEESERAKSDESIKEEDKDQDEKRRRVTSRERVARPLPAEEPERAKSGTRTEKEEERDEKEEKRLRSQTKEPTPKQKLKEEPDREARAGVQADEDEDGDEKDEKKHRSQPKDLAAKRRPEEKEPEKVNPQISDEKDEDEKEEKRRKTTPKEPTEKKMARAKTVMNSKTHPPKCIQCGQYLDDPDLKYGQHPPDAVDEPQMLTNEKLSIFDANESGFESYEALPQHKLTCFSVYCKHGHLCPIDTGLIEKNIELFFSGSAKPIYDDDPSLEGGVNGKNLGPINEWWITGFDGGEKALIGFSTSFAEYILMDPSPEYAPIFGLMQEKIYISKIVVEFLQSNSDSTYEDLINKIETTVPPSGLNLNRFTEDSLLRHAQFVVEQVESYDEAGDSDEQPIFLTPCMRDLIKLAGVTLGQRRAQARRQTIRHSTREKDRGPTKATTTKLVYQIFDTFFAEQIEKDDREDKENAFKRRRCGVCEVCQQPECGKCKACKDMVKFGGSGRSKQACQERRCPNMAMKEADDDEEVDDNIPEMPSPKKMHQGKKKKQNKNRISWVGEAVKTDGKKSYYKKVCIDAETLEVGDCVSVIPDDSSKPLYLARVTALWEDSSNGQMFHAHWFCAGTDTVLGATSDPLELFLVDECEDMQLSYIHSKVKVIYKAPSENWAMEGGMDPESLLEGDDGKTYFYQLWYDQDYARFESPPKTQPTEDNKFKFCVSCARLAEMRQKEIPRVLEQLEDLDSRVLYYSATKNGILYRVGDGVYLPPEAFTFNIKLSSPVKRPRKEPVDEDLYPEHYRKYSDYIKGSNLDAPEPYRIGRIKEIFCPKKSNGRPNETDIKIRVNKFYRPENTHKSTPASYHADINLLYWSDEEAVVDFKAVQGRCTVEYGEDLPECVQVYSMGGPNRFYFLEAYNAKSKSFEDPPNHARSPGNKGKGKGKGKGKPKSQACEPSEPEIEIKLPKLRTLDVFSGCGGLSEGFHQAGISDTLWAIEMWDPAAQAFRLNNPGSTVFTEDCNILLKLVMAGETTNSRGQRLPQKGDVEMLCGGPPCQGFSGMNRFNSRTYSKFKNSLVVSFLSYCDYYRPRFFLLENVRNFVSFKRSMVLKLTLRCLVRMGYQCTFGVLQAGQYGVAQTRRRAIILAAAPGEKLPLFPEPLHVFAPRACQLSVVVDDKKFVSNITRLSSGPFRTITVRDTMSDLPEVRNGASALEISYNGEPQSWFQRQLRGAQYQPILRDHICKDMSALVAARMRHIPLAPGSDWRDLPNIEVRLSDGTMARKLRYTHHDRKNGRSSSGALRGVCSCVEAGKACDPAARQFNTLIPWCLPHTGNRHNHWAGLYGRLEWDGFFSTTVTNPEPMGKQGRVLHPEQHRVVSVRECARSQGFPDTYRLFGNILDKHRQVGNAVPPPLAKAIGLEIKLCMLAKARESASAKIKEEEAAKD

| binding result [1] | binding result [2] | Binder |
| --- | --- | --- |
| binds | – | Human Recombinant GST-METTL14 (natural protein, UniProt Q9HCE5 1-456, looked up) MDSRLQEIRERQKLRRQLLAQQLGAESADSIGAVLNSKDEQREIAETRETCRASYDTSAPNAKRKYLDEGETDEDKMEEYKDELEMQQDEENLPYEEEIYKDSSTFLKGTQSLNPHNDYCQHFVDTGHRPQNFIRDVGLADRFEEYPKLRELIRLKDELIAKSNTPPMYLQADIEAFDIRELTPKFDVILLEPPLEEYYRETGITANEKCWTWDDIMKLEIDEIAAPRSFIFLWCGSGEGLDLGRVCLRKWGYRRCEDICWIKTNKNNPGKTKTLDPKAVFQRTKEHCLMGIKGTVKRSTDGDFIHANVDIDLIITEEPEIGNIEKPVEIFHIIEHFCLGRRRLHLFGRDSTIRPGWLTVGPTLTNSNYNAETYASYFSAPNSYLTGCTEEIERLRPKSPPPKSKSDRGGGAPRGGGRGGTSAGRGRERNRSNFRGERGGFRGGRGGAHRGGFPPR |
| – | binds | Flag-tagged recombinant human METTL14 protein (natural protein, UniProt Q9HCE5 1-456, looked up) MDSRLQEIRERQKLRRQLLAQQLGAESADSIGAVLNSKDEQREIAETRETCRASYDTSAPNAKRKYLDEGETDEDKMEEYKDELEMQQDEENLPYEEEIYKDSSTFLKGTQSLNPHNDYCQHFVDTGHRPQNFIRDVGLADRFEEYPKLRELIRLKDELIAKSNTPPMYLQADIEAFDIRELTPKFDVILLEPPLEEYYRETGITANEKCWTWDDIMKLEIDEIAAPRSFIFLWCGSGEGLDLGRVCLRKWGYRRCEDICWIKTNKNNPGKTKTLDPKAVFQRTKEHCLMGIKGTVKRSTDGDFIHANVDIDLIITEEPEIGNIEKPVEIFHIIEHFCLGRRRLHLFGRDSTIRPGWLTVGPTLTNSNYNAETYASYFSAPNSYLTGCTEEIERLRPKSPPPKSKSDRGGGAPRGGGRGGTSAGRGRERNRSNFRGERGGFRGGRGGAHRGGFPPR |
